Test results reported in publication PMC3257273, “Crystal Structure of a Human Single Domain Antibody Dimer Formed through VH-VH Non-Covalent Interactions” (PLoS ONE, 2012).

Molecular target: T1, human HER2 (ErbB2)/Fc chimera (Homo sapiens, UniProt P04626)
T1 construct: human epidermal growth factor receptor-2 (HER2, ErbB2), the part present in the bought HER2 (ErbB2)/Fc chimera; also called HER2/Fc; human epidermal growth factor receptor-2; source: bought: R&D Systems
Assay: SPR; Biacore 3000; HER2 amine-coupled on CM5 chip (ovalbumin as reference surface); sdAb injected at 5 to 600 nM, 40 uL/min; room temperature; HBS-EP (10 mM HEPES pH 7.4, 150 mM NaCl, 3 mM EDTA, 0.005% P20); 1:1 Langmuir model
Settings: both partners purified

B1: Gr3 (VHH)
VHH: QVQLVESGGGLIKPGGSLRLSCAASGFTVSYESMGWVRQAPGKGLEWVSAISSSGGSTYYADSVKGRFTISRDNSKNTVYLQMNSLRAEDTAVYYCVTPERQCKQSTCYARPRYWGQGTMVTVSS
notes: differs from Gr6 only in CDR1 and CDR3; selected from a synthetic human VH phage display library; Single-domain antibody from a human VH, not a camelid VHH; the vector may add further C-terminal residues besides the His tag; also called anti-HER2 sdAb Gr3; human VH single-domain antibody; source: E. coli periplasm, purified (IMAC, Ni-NTA / HiTrap chelating HP)
Kd: 68 nM | koff: 0.02 s⁻¹ | kon: 290000 M⁻¹ s⁻¹
